According to the supplement of paper PMC9112550, “Optimization of the antimicrobial peptide Bac7 by deep mutational scanning” (BMC Biology, 2022):

What follows are sequences tested on Escherichia coli TOP10 (assay: shrunken log2 fold change of peptide-encoding DNA abundance (4.5 h post-induction vs induction); higher = less antimicrobial activity (less host growth inhibition)). Conditions: time post-induction: 4.5 h; library: site-saturation at positions 5, 18, 19, 20.
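Further: peptides expressed intracellularly from a pBAD plasmid library in pooled LB shake-flask culture, induced with 0.3% L-arabinose, DNA abundance read by NGS, three biological replicates, DESeq2 with apeglm shrinkage.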

| Sequence | shrunken log2 fold change |
| --- | --- |
| RRIRWRPPRLPRPRPRPPHGPRP | 0.428 |
| RRIRHRPPRLPRPRPRPYSRPRP | -0.0123 |
| RRIRQRPPRLPRPRPRPEFDPRP | 0.00351 |
| RRIRKRPPRLPRPRPRPFKRPRP | -0.00663 |
| RRIRYRPPRLPRPRPRPLCQPRP | -0.648 |
| RRIRHRPPRLPRPRPRPWAQPRP | 0.0333 |
| RRIRARPPRLPRPRPRPLGFPRP | 0.644 |
| RRIRTRPPRLPRPRPRPTHTPRP | 0.0425 |
| RRIRWRPPRLPRPRPRPNVTPRP | -0.22 |
| RRIRCRPPRLPRPRPRPEWNPRP | 0.202 |
| RRIRKRPPRLPRPRPRPFQAPRP | 0.0945 |
| RRIRYRPPRLPRPRPRPWKSPRP | -0.118 |
| RRIRTRPPRLPRPRPRPFNDPRP | -0.136 |
| RRIRSRPPRLPRPRPRPDPWPRP | 0.0152 |
| RRIRTRPPRLPRPRPRPVWVPRP | -0.0284 |
| RRIRQRPPRLPRPRPRPLNLPRP | -0.249 |
| RRIRLRPPRLPRPRPRPIITPRP | -0.613 |
| RRIRKRPPRLPRPRPRPTTVPRP | 0.331 |
| RRIRRRPPRLPRPRPRPIMCPRP | 0.0545 |
| RRIRCRPPRLPRPRPRPKSRPRP | 0.0706 |
| RRIRQRPPRLPRPRPRPEDVPRP | -0.0612 |
| RRIRKRPPRLPRPRPRPNGAPRP | 0.168 |
| RRIRVRPPRLPRPRPRPALRPRP | 0.306 |
| RRIRGRPPRLPRPRPRPCGMPRP | 0.0775 |
| RRIRHRPPRLPRPRPRPQKPPRP | -0.0624 |

| Sequence | shrunken log2 fold change |
| --- | --- |
| RRIRSRPPRLPRPRPRPRGGPRP | 0.84 |
| RRIRRRPPRLPRPRPRPPLTPRP | 0.841 |
| RRIRIRPPRLPRPRPRPGFPPRP | 0.186 |
| RRIRYRPPRLPRPRPRPHHGPRP | 0.0431 |
| RRIRTRPPRLPRPRPRPALYPRP | 0.0598 |
| RRIRFRPPRLPRPRPRPFCWPRP | 0.4 |
| RRIRHRPPRLPRPRPRPNLEPRP | 0.127 |
| RRIRWRPPRLPRPRPRPRRDPRP | 0.243 |
| RRIRQRPPRLPRPRPRPEDHPRP | -0.0311 |
| RRIRMRPPRLPRPRPRPWNPPRP | 0.12 |
| RRIRCRPPRLPRPRPRPVTQPRP | -0.15 |
| RRIRFRPPRLPRPRPRPQWSPRP | -0.485 |
| RRIRRRPPRLPRPRPRPRPQPRP | 0.541 |
| RRIRKRPPRLPRPRPRPTWMPRP | 0.466 |
| RRIRHRPPRLPRPRPRPKIQPRP | -0.484 |
| RRIRVRPPRLPRPRPRPGAPPRP | 0.603 |
| RRIRDRPPRLPRPRPRPGDVPRP | 0.0601 |
| RRIRGRPPRLPRPRPRPIIGPRP | -0.0822 |
| RRIRDRPPRLPRPRPRPHIFPRP | -0.361 |
| RRIRVRPPRLPRPRPRPGNIPRP | -0.116 |
| RRIRERPPRLPRPRPRPLMYPRP | -0.0754 |
| RRIRYRPPRLPRPRPRPCRLPRP | 0.0249 |
| RRIRYRPPRLPRPRPRPEMRPRP | 0.0856 |
| RRIRVRPPRLPRPRPRPQKFPRP | -0.278 |
| RRIRPRPPRLPRPRPRPTQRPRP | 0.369 |

| Sequence | shrunken log2 fold change |
| --- | --- |
| RRIRVRPPRLPRPRPRPTYGPRP | -0.838 |
| RRIRQRPPRLPRPRPRPRTAPRP | 0.0467 |
| RRIRLRPPRLPRPRPRPTDHPRP | -0.323 |
| RRIRLRPPRLPRPRPRPDPIPRP | 0.0451 |
| RRIRQRPPRLPRPRPRPRYTPRP | -0.126 |
| RRIRDRPPRLPRPRPRPITHPRP | -0.305 |
| RRIRFRPPRLPRPRPRPDKKPRP | -0.0461 |
| RRIRNRPPRLPRPRPRPNKYPRP | -0.774 |
| RRIRTRPPRLPRPRPRPLLQPRP | 0.173 |
| RRIRNRPPRLPRPRPRPAQYPRP | 0.103 |
| RRIRLRPPRLPRPRPRPDEKPRP | -0.00968 |
| RRIRTRPPRLPRPRPRPDDSPRP | -1.36 |
| RRIRRRPPRLPRPRPRPVCMPRP | 0.32 |
| RRIRNRPPRLPRPRPRPCCCPRP | -0.0783 |
| RRIRGRPPRLPRPRPRPKVCPRP | 0.232 |
| RRIRERPPRLPRPRPRPTQAPRP | -0.0212 |
| RRIRVRPPRLPRPRPRPEEEPRP | 0.0136 |
| RRIRVRPPRLPRPRPRPEEWPRP | 0.015 |
| RRIRSRPPRLPRPRPRPRTAPRP | 0.0119 |
| RRIRCRPPRLPRPRPRPNNQPRP | -0.75 |
| RRIRMRPPRLPRPRPRPETSPRP | 0.163 |
| RRIRHRPPRLPRPRPRPGNVPRP | -0.36 |
| RRIRDRPPRLPRPRPRPSLWPRP | 1.09 |
| RRIRMRPPRLPRPRPRPVKGPRP | 0.0743 |
| RRIRLRPPRLPRPRPRPFYHPRP | -0.821 |

| Sequence | shrunken log2 fold change |
| --- | --- |
| RRIRFRPPRLPRPRPRPPAPPRP | 1.07 |
| RRIRERPPRLPRPRPRPRLNPRP | -0.156 |
| RRIRFRPPRLPRPRPRPDITPRP | -0.0339 |
| RRIRVRPPRLPRPRPRPQANPRP | 0.0748 |
| RRIRYRPPRLPRPRPRPSGVPRP | -0.0951 |
| RRIRGRPPRLPRPRPRPIICPRP | 0.026 |
| RRIRRRPPRLPRPRPRPPYVPRP | 0.181 |
| RRIRQRPPRLPRPRPRPNFKPRP | -0.235 |
| RRIRRRPPRLPRPRPRPELQPRP | 0.212 |
| RRIRRRPPRLPRPRPRPTTIPRP | -0.12 |
| RRIRRRPPRLPRPRPRPYTMPRP | -0.255 |
| RRIRKRPPRLPRPRPRPVDFPRP | 0.103 |
| RRIRQRPPRLPRPRPRPGYKPRP | -0.0992 |
| RRIRWRPPRLPRPRPRPYWCPRP | -0.704 |
| RRIRHRPPRLPRPRPRPCPSPRP | 0.0144 |
| RRIRERPPRLPRPRPRPQNHPRP | -0.519 |
| RRIRSRPPRLPRPRPRPYEAPRP | -0.241 |
| RRIRERPPRLPRPRPRPQPWPRP | -0.0127 |
| RRIRMRPPRLPRPRPRPQKQPRP | 0.0157 |
| RRIRTRPPRLPRPRPRPPNCPRP | 0.0905 |
| RRIRLRPPRLPRPRPRPPHEPRP | 0.269 |
| RRIRFRPPRLPRPRPRPRQQPRP | 0.0599 |
| RRIRVRPPRLPRPRPRPVFGPRP | -0.0383 |
| RRIRWRPPRLPRPRPRPITLPRP | 0.107 |
| RRIRRRPPRLPRPRPRPDDCPRP | 0.279 |

| Sequence | shrunken log2 fold change |
| --- | --- |
| RRIRMRPPRLPRPRPRPWSHPRP | -0.0815 |
| RRIRNRPPRLPRPRPRPYFGPRP | -0.284 |
| RRIRDRPPRLPRPRPRPAFIPRP | -0.115 |
| RRIRMRPPRLPRPRPRPNSHPRP | -0.451 |
| RRIRSRPPRLPRPRPRPDNQPRP | -0.568 |
| RRIRVRPPRLPRPRPRPSLGPRP | 0.0433 |
| RRIRRRPPRLPRPRPRPVIKPRP | -0.121 |
| RRIRFRPPRLPRPRPRPNPWPRP | -0.0447 |
| RRIRTRPPRLPRPRPRPMNHPRP | -0.0849 |
| RRIRQRPPRLPRPRPRPLDAPRP | 0.109 |
| RRIRCRPPRLPRPRPRPAAHPRP | 0.37 |
| RRIRKRPPRLPRPRPRPCIDPRP | -0.0418 |
| RRIRSRPPRLPRPRPRPGQIPRP | -0.227 |
| RRIRPRPPRLPRPRPRPTLAPRP | 0.332 |
| RRIRPRPPRLPRPRPRPTQQPRP | 0.827 |
| RRIRMRPPRLPRPRPRPDHNPRP | -0.00429 |
| RRIRFRPPRLPRPRPRPVPPPRP | 0.46 |
| RRIRHRPPRLPRPRPRPKLVPRP | -0.017 |
| RRIRDRPPRLPRPRPRPVNCPRP | -0.328 |
| RRIRCRPPRLPRPRPRPKHAPRP | 0.302 |
| RRIRWRPPRLPRPRPRPNSIPRP | -0.396 |
| RRIRIRPPRLPRPRPRPDKVPRP | -0.043 |
| RRIRGRPPRLPRPRPRPYIMPRP | -0.746 |
| RRIRPRPPRLPRPRPRPCEAPRP | 0.0756 |
| RRIRFRPPRLPRPRPRPWHCPRP | -0.028 |

| Sequence | shrunken log2 fold change |
| --- | --- |
| RRIRGRPPRLPRPRPRPEKIPRP | 0.672 |
| RRIRVRPPRLPRPRPRPKVNPRP | -0.288 |
| RRIRYRPPRLPRPRPRPRWEPRP | -0.0931 |
| RRIRPRPPRLPRPRPRPCHQPRP | 0.0122 |
| RRIRGRPPRLPRPRPRPWGVPRP | 0.287 |
| RRIRHRPPRLPRPRPRPHLNPRP | -0.00458 |
| RRIRARPPRLPRPRPRPYSEPRP | -0.339 |
| RRIRLRPPRLPRPRPRPFNSPRP | -0.431 |
| RRIRSRPPRLPRPRPRPQSSPRP | -0.192 |
| RRIRARPPRLPRPRPRPIRTPRP | 0.0627 |
| RRIRIRPPRLPRPRPRPCWGPRP | 0.162 |
| RRIRDRPPRLPRPRPRPRLRPRP | 0.122 |
| RRIRWRPPRLPRPRPRPCACPRP | 0.0874 |
| RRIRPRPPRLPRPRPRPWGWPRP | 0.149 |
| RRIRLRPPRLPRPRPRPEIHPRP | -0.269 |
| RRIRPRPPRLPRPRPRPRVEPRP | 0.625 |
| RRIRVRPPRLPRPRPRPVMDPRP | -0.324 |
| RRIRERPPRLPRPRPRPCMPPRP | 0.0888 |
| RRIRCRPPRLPRPRPRPCCDPRP | -0.27 |
| RRIRQRPPRLPRPRPRPMQWPRP | 0.0039 |
| RRIRIRPPRLPRPRPRPQGKPRP | -0.385 |
| RRIRFRPPRLPRPRPRPMSDPRP | -0.103 |
| RRIRKRPPRLPRPRPRPKQFPRP | -0.123 |
| RRIRIRPPRLPRPRPRPIYLPRP | -0.811 |
| RRIRCRPPRLPRPRPRPKLLPRP | -0.172 |
